Tests used:
[1] = substrate: Nc1ccn([C@H]2C[C@H](O)[C@@H](COP(=O)(O)OP(=O)(O)OP(=O)(O)O)O2)c(=O)n1; experiment: purified protein; format: biochemical, Pseudomonas aeruginosa; details: opposite undamaged template dG, 13/20-mer primer/template DNA 100 nM, 200 nM DinB, 10 mM MgCl2, pH 7.5, 25 °C
[2] = substrate: Nc1ncnc2c1ncn2[C@H]1C[C@H](O)[C@@H](COP(=O)(O)OP(=O)(O)OP(=O)(O)O)O1; experiment: purified protein; format: biochemical, Pseudomonas aeruginosa; details: opposite template 8-oxo-dG (lesion), 13/20 8-oxo-dG-mer DNA 100 nM, 200 nM DinB, 10 mM MgCl2, pH 7.5, 25 °C

B1: P. aeruginosa DinB (DNA Pol IV) (Pseudomonas aeruginosa PAO1) (protein)
chain: MRKIIHIDCDCFYAALEMRDDPSLRGKALAVGGSPDKRGVVATCSYEARAYGVRSAMAMRTALKLCPDLLVVRPRFDVYRAVSKQIHAIFRDYTDLIEPLSLDEAYLDVSASPHFAGSATRIAQDIRRRVAEELHITVSAGVAPNKFLAKIASDWRKPDGLFVITPEQVDGFVAELPVAKLHGVGKVTAERLARMGIRTCADLRQGSKLSLVREFGSFGERLWGLAHGIDERPVEVDSRRQSVSVECTFDRDLPDLAACLEELPTLLEELDGRLQRLDGSYRPDKPFVKLKFHDFTQTTVEQSGAGRDLESYRQLLGQAFARGNRPVRLIGVGVRLLDLQGAHEQLRLF
notes: C-terminally hexahistidine-tagged, recombinant, purified as described earlier
Km [1]: 5.4 ± 2.3 µM | kcat [1]: 0.12 ± 0.01 s⁻¹ | kcat/Km [1]: 22000 M⁻¹ s⁻¹ | Km [2]: 15 ± 5.0 µM | kcat [2]: 0.066 ± 0.006 s⁻¹ | kcat/Km [2]: 4000 M⁻¹ s⁻¹

From article PMC3078926, “Epistatic Roles for Pseudomonas aeruginosa MutS and DinB (DNA Pol IV) in Coping with Reactive Oxygen Species-Induced DNA Damage” (PLoS ONE, 2011)
